Paper PMC8000408, “Inhibition of NUPR1–Karyopherin β1 Binding Increases Anticancer Drug Sensitivity” (International Journal of Molecular Sciences, 2021)

Key:
[1] = molecular target: T1, Cy5-labeled karyopherin β1 (KPNB1) (UniProt Q14974 1-876, Cy5 label (site not stated)); experiment: single-molecule pull-down (TIRF microscopy); GST-NUPR1 immobilised; observed rate constants at various concentrations of karyopherin β1, fitted with a Michaelis-Menten equation; details: both partners purified
T1 construct: Karyopherin β1 (KPNB1, importin β1); also called importin β1; Cy5-KPNB1
T1 sequence (Q14974 whole entry): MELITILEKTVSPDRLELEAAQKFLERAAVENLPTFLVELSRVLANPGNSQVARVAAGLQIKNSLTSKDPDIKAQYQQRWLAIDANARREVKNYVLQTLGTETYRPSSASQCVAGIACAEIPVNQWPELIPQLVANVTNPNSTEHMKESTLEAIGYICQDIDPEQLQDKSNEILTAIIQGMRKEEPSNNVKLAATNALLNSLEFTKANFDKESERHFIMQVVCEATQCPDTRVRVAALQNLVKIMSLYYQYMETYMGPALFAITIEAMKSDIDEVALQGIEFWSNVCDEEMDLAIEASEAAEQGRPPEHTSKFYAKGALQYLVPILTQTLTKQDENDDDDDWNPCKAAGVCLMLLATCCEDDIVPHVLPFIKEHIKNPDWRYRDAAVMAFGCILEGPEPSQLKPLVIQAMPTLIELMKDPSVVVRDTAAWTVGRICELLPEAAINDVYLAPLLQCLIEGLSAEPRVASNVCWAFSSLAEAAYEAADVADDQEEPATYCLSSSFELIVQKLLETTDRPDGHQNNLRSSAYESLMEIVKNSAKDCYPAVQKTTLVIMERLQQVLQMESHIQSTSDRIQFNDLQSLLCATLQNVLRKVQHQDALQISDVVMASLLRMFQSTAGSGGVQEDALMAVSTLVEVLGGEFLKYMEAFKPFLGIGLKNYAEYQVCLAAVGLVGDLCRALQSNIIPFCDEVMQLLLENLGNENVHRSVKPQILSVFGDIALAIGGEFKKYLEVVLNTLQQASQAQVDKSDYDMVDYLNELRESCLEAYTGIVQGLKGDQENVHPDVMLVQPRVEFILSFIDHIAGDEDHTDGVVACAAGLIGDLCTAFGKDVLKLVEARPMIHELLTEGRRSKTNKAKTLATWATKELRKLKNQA

[2] = molecular target: T1, Cy5-labeled karyopherin β1 (KPNB1); experiment: single-molecule pull-down (TIRF microscopy); GST-NUPR1 (100 nM) immobilised on PEG-coated quartz via neutravidin and biotin-conjugated GST-tag antibody; 5 nM Cy5-labeled KPNB1 in imaging buffer (4 mM Trolox, 0.2% glucose, 50 mM NaCl, pyranose oxidase, catalase); spots counted up to 1 h, then unbound KPNB1 washed out for dissociation; exponential fits; details: both partners purified

B1: GST-NUPR1 (nuclear protein-1) recombinant protein (natural protein, UniProt O60356 1-82, looked up)
chain: MATFPPATSAPQQPPGPEDEDSSLDESDLYSLAHSYLGGGGRKGRTKREAAANTNRPSPGGHERKLVTKLQNSERKKRGARR
notes: Nuclear protein-1 (NUPR1, p8/Com-1); Held on the PEG-coated quartz surface through neutravidin and a biotin-conjugated GST-tag antibody; No catalogue number is printed; also called p8; Com-1; source: bought: NOVUS Biologicals (recombinant protein)
Kd [1]: 0.75 nM | Kd [2]: ~0.65 nM | koff [2]: 0.0003 s⁻¹ | kon [2]: 467000 M⁻¹ s⁻¹
